The target of data set [1] is T1, StrepSumo-tagged Mit1CII wild type (S. pombe, UniProt Q9P793 1-81).
T1 construct: The Strep-SUMO tag was left on for stabilization; also called wild-type Mit1CII; source: E. coli BL21(DE3) or Rosetta (DE3), purified (Streptactin, SEC); not shown: Strep-SUMO, N-terminal, kept
T1 sequence (looked up): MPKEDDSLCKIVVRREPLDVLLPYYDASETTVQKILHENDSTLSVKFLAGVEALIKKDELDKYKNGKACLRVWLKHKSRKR
In words: ITC; 25°C; 400 mM NaCl, 50 mM Tris-HCl pH 7.5, 5 mM β-mercaptoethanol; Chp2 or Swi6 at 100 to 500 µM injected into the cell holding StrepSumo-tagged Mit1 constructs at 5 to 50 µM; VP-ITC or Nano ITC (Mit1CIIΔCDL). The settings on record: both partners purified. In general terms: In ITC the heat of successive injections is recorded.

For data set [2], the target named is T2, StrepSumo-tagged Mit1CII with engineered PkVvL motif instead of CkIvV (S. pombe, UniProt Q9P793 1-81, PkVvL motif instead of CkIvV).
T2 construct: Mit1, S. pombe, CII, residues 1-81; residues 9-13 CKIVV changed to PKVVL; also called Mit1 PxVxL substitution mutant; PxVxL substitution; source: E. coli BL21(DE3) or Rosetta (DE3), purified (Streptactin, SEC); not shown: Strep-SUMO, N-terminal, kept
T2 sequence (looked up): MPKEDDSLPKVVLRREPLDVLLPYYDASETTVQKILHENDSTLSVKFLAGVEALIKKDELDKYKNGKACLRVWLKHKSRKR
The description is as above. The note with it: both partners purified.

Data set [3] addresses StrepSumo-tagged Mit1CIIΔCDL (S. pombe). Described as above.
The target in data set [4] is T3, StrepSumo-tagged Mit1CII I11R (S. pombe, UniProt Q9P793 1-81, I11R).
T3 construct: Mit1, S. pombe, CII, residues 1-81, I11R; also called Mit1I11R; Mit1 I11R; source: E. coli BL21(DE3) or Rosetta (DE3), purified (Streptactin, SEC); not shown: Strep-SUMO, N-terminal, kept
T3 sequence (looked up): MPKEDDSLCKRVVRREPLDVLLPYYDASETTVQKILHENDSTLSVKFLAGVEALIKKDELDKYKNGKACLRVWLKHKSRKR
The data set is described as above. The settings on record: both partners purified.

The target of data set [5] is T4, Mit1(1-81), Chp2 interaction interface (CII), tag removed (S. pombe, UniProt Q9P793 1-81).
T4 construct: Mit1, S. pombe, residues 1-81 (CkIvV motif 9-13, linker 15-31, CD-like domain); Density is seen for residues 8-81; also called Mit1CII; source: E. coli BL21(DE3) or Rosetta (DE3), coexpressed with Chp2CSD, purified as a complex (Streptactin, Ulp1, SEC); not shown: Strep-SUMO, N-terminal, cleaved
T4 sequence (looked up): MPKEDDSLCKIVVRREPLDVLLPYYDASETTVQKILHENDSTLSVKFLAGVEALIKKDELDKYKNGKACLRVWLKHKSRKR
In words: crystal structure; Mit1(1-81)–Chp2(316-380), coexpressed in E. coli, purified as a complex; hanging drops at 18°C, 2.4 M sodium malonate pH 7, 3% 1,6-hexanediol; 1.6 Å. The note with it: both partners purified.

Data set [6] concerns the molecule itself. The description is as above.

As usually defined, the Kd is the equilibrium constant for the complex coming apart. A high value points to weaker binding. As usually defined, the stoichiometry N is the number of molecules, sites or subunits per partner or assembly.

B1: Swi6CSD (domain or fragment, S. pombe, UniProt P40381 267-328, looked up)
chain: DSWEDLVSSIDTIERKDDGTLEIYLTWKNGAISHHPSTITNKKCPQKMLQFYESHLTFRENE
notes: Swi6, HP1 protein, S. pombe, chromoshadow domain (CSD); A crystal structure of the free Swi6CSD dimer (PDB 1E0B) is cited; also called Swi6 chromoshadow domain; source: E. coli BL21(DE3) or Rosetta (DE3), purified (Streptactin, on-column Ulp1 cleavage, SEC); not shown: Strep-SUMO, N-terminal, cleaved
B1: the Kd in data set [1] was 28 µM; in data set [2], 15 µM.

B2: Chp2CSD (expressed alone, tag removed, for ITC) (domain or fragment, S. pombe)
chain: KPPFQKKSWEDLVDCVKTVQQLDNGKLIAKIKWKNGYVSTHDNIIIHQKCPLKIIEYYEAHIKFT
notes: Chp2, S. pombe, chromoshadow domain (CSD); limits 316-380 are printed for the crystallised CSD construct, not for the ITC sample; source: E. coli BL21(DE3) or Rosetta (DE3), purified (Streptactin, Ulp1, MonoS); not shown: Strep-SUMO, N-terminal, cleaved
With B2, the Kd in data set [3] turned out to be 2.2 µM; in data set [1], 0.0026 µM; in data set [2] it was 0.0082 µM; in data set [4], 21.5 µM.

B3: Chp2CSD, Chp2(316-380), untagged, coexpressed with Mit1 fragments (domain or fragment, S. pombe, UniProt O42934 316-380, looked up)
chain: KPPFQKKSWEDLVDCVKTVQQLDNGKLIAKIKWKNGYVSTHDNIIIHQKCPLKIIEYYEAHIKFT
notes: Chp2, S. pombe, chromoshadow domain, residues 316-380; Cloned without tag into pACE2 for coexpression; Limits 316-380 are printed for the crystallised complex; also called chromo shadow domain of Chp2; Chp2CSD2; source: E. coli BL21(DE3) or Rosetta (DE3), coexpressed with Mit1 fragments, purified as a complex
For the molecule B3, the “stoichiometry N” value was determined as 2 Chp2CSD chains per Mit1 in data set [5] and 2 in data set [6].

The values are drawn from publication PMC6499331, “Transcriptional gene silencing requires dedicated interaction between HP1 protein Chp2 and chromatin remodeler Mit1” (Genes & Development, 2019).
